These results are taken from patent publication US20090099029A1, “Methods and substrates for conducting assays” (Invitrogen Corporation, priority 2005, published 2009).

For the data set, the system named is kinases of Table 6 on Myelin Basic Protein (MBP). Briefly: Kinase assay using MBP substrate, ProQ Diamond stain (Table 6). The data set is classed as biochemical. To be noted: kinase printed on MBP-coated slide; 20 uM ATP, 30° C.; ProQ Diamond Microarray Stain; graded Strong/Weak/Negative. The protocol: In this illustrative example, four-well slides were designed with a hydrophobic mask surrounding 4-wells of aldehyde- or epoxy-coated glass (smooth or ES grade; Erie Scientific (Portsmouth, N.H.)). […] Bovine, dephosphorylated, Myelin Basic Protein (MBP) was purchased from Upstate Biotechnology (#13-110). MBP was diluted to 1 mg/ml in PBS, applied to the slide surface, covered with a coverslip, and left overnight at 4° C. to coat the slide with the MBP. Slides were washed 3 times with water and spun dry before printing.
Kinases were purchased from Panvera (Invitrogen, Carlsbad, Calif.), diluted in printing buffer (50 mM Tris pH 7.5, 25% glyercol, 0.05% TritonX-100, 2 mM DTT) and deposited using a GeneMachine OmniGrid100. Slides were stored at −20° C.
Reactions were performed following removal of the slide from the freezer. Reaction buffer (20 mM HEPES pH 7.5, 4 mM MgCl2, 2 mM DTT, 20 uM ATP, 5% DMSO) was added with or without inhibitor, a coverslip applied, and the slide placed at 30° C. for the appropriate reaction time. The slide was washed with water to stop the reaction (3 times) and spun dry. ProQ Diamond Microarray Stain (Invitrogen #P33706) was applied, covered with a coverslip, and the slide was incubated in the dark at room temperature for 30 minutes. The slide was destained and washed three times with water, and spun dry.

B1: GSK3A (protein)
chain: MSGGGPSGGGPGGSGRARTSSFAEPGGGGGGGGGGPGGSASGPGGTGGGKASVGAMGGGVGASSSGGGPGGSGGGGSGGPGAGTSFPPPGVKLGRDSGKVTTVVATLGQGPERSQEVAYTDIKVIGNGSFGVVYQARLAETRELVAIKKVLQDKRFKNRELQIMRKLDHCNIVRLRYFFYSSGEKKDELYLNLVLEYVPETVYRVARHFTKAKLTIPILYVKVYMYQLFRSLAYIHSQGVCHRDIKPQNLLVDPDTAVLKLCDFGSAKQLVRGEPNVSYICSRYYRAPELIFGATDYTSSIDVWSAGCVLAELLLGQPIFPGDSGVDQLVEIIKVLGTPTREQIREMNPNYTEFKFPQIKAHPWTKVFKSRTPPEAIALCSSLLEYTPSSRLSPLEACAHSFFDELRCLGTQLPNNRPLPPLFNFSAGELSIQPSLNAILIPPHLRSPAGTTTLTPSSQALTETPTSSDWQSTDATPTLTNSS
modifications: left off: small tags and cut ends
Turning to B1, the “MBP Kinase Activity” value is “Weak”.

B2: GRK7 (protein)
chain: MVDMGALDNLIANTAYLQARKPSDCDSKELQRRRRSLALPGLQGCAELRQKLSLNFHSLCEQQPIGRRLFRDFLATVPTFRKAATFLEDVQNWELAEEGPTKDSALQGLVATCASAPAPGNPQPFLSQAVATKCQAATTEEERVAAVTLAKAEAMAFLQEQPFKDFVTSAFYDKFLQWKLFEMQPVSDKYFTEFRVLGKGGFGEVCAVQVKNTGKMYACKKLDKKRLKKKGGEKMALLEKEILEKVSSPFIVSLAYAFESKTHLCLVMSLMNGGDLKFHIYNVGTRGLDMSRVIFYSAQIACGMLHLHELGIVYRDMKPENVLLDDLGNCRLSDLGLAVEMKGGKPITQRAGTNGYMAPEILMEKVSYSYPVDWFAMGCSIYEMVAGRTPFKDYKEKVSKEDLKQRTLQDEVKFQHDNFTEEAKDICRLFLAKKPEQRLGSREKSDDPRKHHFFKTINFPRLEAGLIEPPFVPDPSVVYAKDIAEIDDFSEVRGVEFDDKDKQFFKNFATGAVPIAWQEEIIETGLFEELNDPNRPTGCEEGNSSKSGVCLLL
modifications: left off: a dimerising Fc or GST
On to B2, for which the “MBP Kinase Activity” value is listed as “Negative”.

B3: EPHA3 (protein)
chain: RFCGYKSKHGADEKRLHFGNGHLKLPGLRTYVDPHTYEDPTQAVHEFAKELDATNISIDKVVGAGEFGEVCSGRLKLPSKKEISVAIKTLKVGYTEKQRRDFLGEASIMGQFDHPNIIRLEGVVTKSKPVMIVTEYMENGSLDSFLRKHDAQFTVIQLVGMLRGIASGMKYLSDMGYVHRDLAARNILINSNLVCKVSDFGLSRVLEDDPEAAYTTRGGKIPIRWTSPEAIAYRKFTSASDVWSYGIVLWEVMSYGERPYWEMSNQDVIKAVDEGYRLPPPMDCPAALYQLMLDCWQKDRNNRPKFEQIVSILDKLIRNPGSLKIITSAAARPSNLLLDQSNVDITTFRTTGDWLNGVWTAHCKEIFTGVEYSSCDTIAKISTDDMKKVGVTVVGPQKKIISSIKALETQSKNGPVPV
modifications: left off: small tags and cut ends
Consider B3, for which the “MBP Kinase Activity” value was “Strong”.

B4: MAP2K6(MKK6) (protein)
chain: MSQSKGKKRNPGLKIPKEAFEQPQTSSTPPRDLDSKACISIGNQNFEVKADDLEPIMELGRGAYGVVEKMRHVPSGQIMAVKRIRATVNSQEQKRLLMDLDISMRTVDCPFTVTFYGALFREGDVWICMELMDTSLDKFYKQVIDKGQTIPEDILGKIAVSIVKALEHLHSKLSVIHRDVKPSNVLINALGQVKMCDFGISGYLVDSVAKTIDAGCKPYMAPERINPELNQKGYSVKSDIWSLGITMIELAILRFPYDSWGTPFQQLKQVVEEPSPQLPADKFSAEFVDFTSQCLKKNSKERPTYPELMQHPFFTLHESKGTDVASFVKLILGD
modifications: left off: small tags and cut ends
Take B4: the “MBP Kinase Activity” value is recorded as “Weak”.

B5: MAP2K6, mutant (protein)
chain: MSQSKGKKRNPGLKIPKEAFEQPQTSSTPPRDLDSKACISIGNQNFEVKADDLEPIMELGRGAYGVVEKMRHVPSGQIMAVKRIRATVNSQEQKRLLMDLDISMRTVDCPFTVTFYGALFREGDVWICMELMDTSLDKFYKQVIDKGQTIPEDILGKIAVSIVKALEHLHSKLSVIHRDVKPSNVLINALGQVKMCDFGISGYLVDEVAKEIDAGCKPYMAPERINPELNQKGYSVKSDIWSLGITMIELAILRFPYDSWGTPFQQLKQVVEEPSPQLPADKFSAEFVDFTSQCLKKNSKERPTYPELMQHPFFTLHESKGTDVASFVKLILGD
modifications: left off: small tags and cut ends
With B5, the “MBP Kinase Activity” value was “Negative”.

B6: MAP2K3(MEK3) (protein)
chain: MSKPPAPNPTPPRNLDSRTFITIGDRNFEVEADDLVTISELGRGAYGVVEKVRHAQSGTIMAVKRIRATVNSQEQKRLLMDLDINMRTVDCFYTVTFYGALFREGDVWICMELMDTSLDKFYRKVLDKNMTIPEDILGEIAVSIVRALEHLHSKLSVIHRDVKPSNVLINKEGHVKMCDFGISGYLVDSVAKTMDAGCKPYMAPERINPELNQKGYNVKSDVWSLGITMIEMAILRFPYESWGTPFQQLKQVVEEPSPQLPADRFSPEFVDFTAQCLRKNPAERMSYLELMEHPFFTLHKTKKTDIAAFVKEILGEDS
modifications: left off: a dimerising Fc or GST
Turning to B6, the “MBP Kinase Activity” value was “Negative”.

B7: GRK6 (protein)
chain: MELENIVANTVLLKAREGGGGNRKGKSKKWRQMLQFPHISQCEELRLSLERDYHSLCERQPIGRLLFREFCATRPELSRCVAFLDGVAEYEVTPDDKRKACGRQLTQNFLSHTGPDLIPEVPRQLVTNCTQRLEQGPCKDLFQELTRLTHEYLSVAPFADYLDSIYFNRFLQWKWLERQPVTKNTFRQYRVLGKGGFGEVCACQVRATGKMYACKKLEKKRIKKRKGEAMALNEKQILEKVNSRFVVSLAYAYETKDALCLVLTLMNGGDLKFHIYHMGQAGFPEARAVFYAAEICCGLEDLHRERIVYRDLKPENILLDDHGHIRISDLGLAVHVPEGQTIKGRVGTVGYMAPEVVKNERYTFSPDWWALGCLLYEMIAGQSPFQQRKKKIKREEVERLVKEVPEEYSERFSPQARSLCSQLLCKDPAERLGCRGGSAREVKEHPLFKKLNFKRLGAGMLEPPFKPDPQAIYCKDVLDIEQFSTVKGVELEPTDQDFYQKFATGSVPIPWQNEMVETECFQELNVFGLDGSVPPDLDWKGQPPAPPKKGLLQRLFSRQDCCGNCSDSEEELPTRL
modifications: left off: a dimerising Fc or GST
As for B7, the “MBP Kinase Activity” value is “Negative”.

B8: IRAK4 (protein)
chain: MNKPITPSTYVRCLNVGLIRKLSDFIDPQEGWKKLAVAIKKPSGDDRYNQFHIRRFEALLQTGKSPTSELLFDWGTTNCTVGDLVDLLIQNEFFAPASLLLPDAVPKTANTLPSKEAITVQQKQMPFCDKDRTLMTPVQNLEQSYMPPDSSSPENKSLEVSDTRFHSFSFYELKNVTNNFDERPISVGGNKMGEGGFGVVYKGYVNNTTVAVKKLAAMVDITTEELKQQFDQEIKVMAKCQHENLVELLGFSSDGDDLCLVYVYMPNGSLLDRLSCLDGTPPLSWHMRCKIAQGAANGINFLHENHHIHRDIKSANILLDEAFTAKISDFGLARASEKFAQTVMTSRIVGTTAYMAPEALRGEITPKSDIYSFGVVLLEIITGLPAVDEHREPQLLLDIKEEIEDEEKTIEDYIDKKMNDADSTSVEAMYSVASQCLHEKKNKRPDIKKVQQLLQEMTAS
modifications: left off: small tags and cut ends
Take B8: the “MBP Kinase Activity” value is on record as “Strong”.
